pEC50, pIC50, pKd: −log10 of the molar value.
Tests used:
[1] = target: ^125I labeled (Y)HA306–318 (influenza); test: radioligand binding
[2] = target: DR1GrpE: DR1 α chain 1–181 and β chain 1–190 fused C-terminally to GrpE, not biotinylated (human); test: AlphaScreen or HTRF
[3] = target: DP401: DPA1*0103/DPB1*0401 (human); test: AlphaScreen or HTRF
[4] = target: I-E^d (mouse MHC class II) (mouse) (UniProt P01904); test: AlphaScreen or HTRF
[5] = target: DR4 (DRA*0101/DRB1*0401), biotinylated, LOCI assay (human); test: AlphaScreen or HTRF
[6] = target: DR2a (DRA*0101/DRB5*0101), biotinylated, direct LOCI assay at pH 6 (human); test: AlphaScreen or HTRF
[7] = target: DRB1*0813: DRA*0101/DRB1*0813 (human); test: AlphaScreen or HTRF
[8] = target: DRB3*0301: DRA*0101/DRB3*0301 (human); test: AlphaScreen or HTRF
[9] = target: DR2a (DRA*0101/DRB5*0101) with non-biotinylated β chain, competitive LOCI assay (human); test: AlphaScreen or HTRF

“DR1: DRA*0101(1–191)/DRB1*0101(1–198) (complex)” was tested, and the pEC50 [1] was 7.70.
“6xH Influenza A (PR8) HA 109–119 peptide …” gave a pIC50 [2] of 6.49, a pKd [3] of 9.00 and a pKd [4] of 6.01. The pKd [5] was 5.73, the pKd [6] was 8.05 and the pKd [7] was 6.74. It also gave a pKd [8] of 5.82 and a pIC50 [9] of 7.64.

— article PMC2690590, “Functional recombinant MHC class II molecules and high-throughput peptide-binding assays” (Immunome Research, 2009)
